{
  "source": "patent US20100184651A1",
  "about": "(DABUR PHARMA, published 2010)",
  "binders": {"B1": {"name": "VIP-BH3 BID fusion protein (other)", "chain": "MHSDAVFTDNYTRLRKQMAVKKYLNSILNGSSLLIARRMPNFNEDIIRNIARHLAQVGDSMDRLEHHHHHH"}},
  "biological_target": "T1, VPAC1 receptor (human, UniProt P32241 31-457)",
  "T1 sequence (looked up)": "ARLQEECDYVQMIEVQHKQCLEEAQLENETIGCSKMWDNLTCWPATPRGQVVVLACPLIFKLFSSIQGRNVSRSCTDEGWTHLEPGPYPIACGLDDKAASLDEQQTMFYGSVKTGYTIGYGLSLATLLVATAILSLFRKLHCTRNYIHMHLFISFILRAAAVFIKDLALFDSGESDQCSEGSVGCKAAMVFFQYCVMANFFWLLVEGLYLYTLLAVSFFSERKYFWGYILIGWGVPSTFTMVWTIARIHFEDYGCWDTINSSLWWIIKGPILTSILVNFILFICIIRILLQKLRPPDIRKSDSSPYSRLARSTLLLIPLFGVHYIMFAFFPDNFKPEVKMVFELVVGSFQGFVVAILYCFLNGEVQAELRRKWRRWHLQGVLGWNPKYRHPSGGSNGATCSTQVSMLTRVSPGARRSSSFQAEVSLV",
  "assay": "cell-based or functional assay",
  "data": [
    {"binder": "B1", "values": [
      {"measurement": "IC50, cytotoxicity on A549 cells (MTT assay, 24 h)", "value": "~5", "unit": "µM"},
      {"measurement": "IC50, cytotoxicity on HT29 cells (MTT assay, 24 h)", "value": "~15", "unit": "µM"}
    ]}
  ]
}
